Non-standard residues stand in square brackets, D forms with d. Phe(4-N3) = [N-]=[N+]=Nc1ccc(C[C@H](N)C(=O)O)cc1
B1: E. coli glutathione S-transferase (GST) with p-azidophenylalanine (Azi) incorporated at Asn87 (87TAG), C-terminal FLAG tag (enzyme, UniProt P0A9D2 1-201, looked up)
chain: MKLFYKPGACSLASHITLRESGKDFTLVSVDLMKKRLENGDDYFAVNPKGQVPALLLDDGTLLTEGVAIMQYLADSVPDRQLLAPV[Phe(4-N3)]SISRYKTIEWLNYIATELHKGFTPLFRPDTPEEYKPTVRAQLEKKLQYVNEALKDEHWICGQRFTIADAYLFTVLRWAYAVKLNLEGLEHIAAFMQRMAERPEVQDALSAEGLK
modifications: not fully specified (C-terminus); also: homodimer
notes: not shown: C-terminal FLAG tag replacing the His6 tag
B2: E. coli glutathione S-transferase (GST) with p-azidophenylalanine (Azi) incorporated at Asn87 (87TAG), C-terminal His6 tag (enzyme)
chain: MKLFYKPGACSLASHITLRESGKDFTLVSVDLMKKRLENGDDYFAVNPKGQVPALLLDDGTLLTEGVAIMQYLADSVPDRQLLAPV[Phe(4-N3)]SISRYKTIEWLNYIATELHKGFTPLFRPDTPEEYKPTVRAQLEKKLQYVNEALKDEHWICGQRFTIADAYLFTVLRWAYAVKLNLEGLEHIAAFMQRMAERPEVQDALSAEGLKHHHHHH
notes: Expressed in HEK293/HEK293T cells with tRNACUA-Tyr/EAziRS and 1 mM Azi; crosslinked in live cells with 365 nm UV; X stands for the unnatural amino acid Azi; also called GST 87TAG; site 87
B3: E. coli glutathione S-transferase (GST) with p-azidophenylalanine (Azi) incorporated at Tyr92 (92TAG), C-terminal His6 tag (enzyme)
chain: MKLFYKPGACSLASHITLRESGKDFTLVSVDLMKKRLENGDDYFAVNPKGQVPALLLDDGTLLTEGVAIMQYLADSVPDRQLLAPVNSISR[Phe(4-N3)]KTIEWLNYIATELHKGFTPLFRPDTPEEYKPTVRAQLEKKLQYVNEALKDEHWICGQRFTIADAYLFTVLRWAYAVKLNLEGLEHIAAFMQRMAERPEVQDALSAEGLKHHHHHH
notes: Expressed in HEK293/HEK293T cells with tRNACUA-Tyr/EAziRS and 1 mM Azi; crosslinked in live cells with 365 nm UV; X stands for the unnatural amino acid Azi; also called site 92; GST-His6
B4: E. coli glutathione S-transferase (GST) with p-azidophenylalanine (Azi) incorporated at Val125 (125TAG), C-terminal FLAG tag (enzyme, UniProt P0A9D2 1-201, looked up)
chain: MKLFYKPGACSLASHITLRESGKDFTLVSVDLMKKRLENGDDYFAVNPKGQVPALLLDDGTLLTEGVAIMQYLADSVPDRQLLAPVNSISRYKTIEWLNYIATELHKGFTPLFRPDTPEEYKPT[Phe(4-N3)]RAQLEKKLQYVNEALKDEHWICGQRFTIADAYLFTVLRWAYAVKLNLEGLEHIAAFMQRMAERPEVQDALSAEGLK
modifications: not fully specified (C-terminus); also: homodimer
notes: as for B1
B5: E. coli glutathione S-transferase (GST) with p-azidophenylalanine (Azi) incorporated at Val125 (125TAG), C-terminal His6 tag (enzyme)
chain: MKLFYKPGACSLASHITLRESGKDFTLVSVDLMKKRLENGDDYFAVNPKGQVPALLLDDGTLLTEGVAIMQYLADSVPDRQLLAPVNSISRYKTIEWLNYIATELHKGFTPLFRPDTPEEYKPT[Phe(4-N3)]RAQLEKKLQYVNEALKDEHWICGQRFTIADAYLFTVLRWAYAVKLNLEGLEHIAAFMQRMAERPEVQDALSAEGLKHHHHHH
notes: Expressed in HEK293/HEK293T cells with tRNACUA-Tyr/EAziRS and 1 mM Azi; crosslinked in live cells with 365 nm UV; X stands for the unnatural amino acid Azi

What was measured:
[1] = target: the molecule itself; test: in-cell photocrosslinking of the GST homodimer, anti-FLAG Western blot
[2] = target: the molecule itself; test: in-cell photocrosslinking of the GST homodimer (365 nm, 10 min), band intensity ratio on anti-His Western blot
Experimental: E. coli GST is homodimer (Nishida et al., J. Mol. Biol., 1998, 281:135-147). Three sites at the dimer interface, Asn87 in a loop and Tyr92 and Val125 in α-helices were chosen for incorporating Azi (FIG. 10A). GST genes with TAG mutation at these sites and a C-terminal His6 tag were cotransfected with the orthogonal tRNACUA^Tyr/EAziRS pair in HEK293 cells, and the cells were grown in the presence of 1 mM of Azi. Photocrosslinking was performed by exposing the cells under 365 nm UV light for 10 minutes. Cell lysates were separated on SDS-PAGE and probed with an antibody against the His6 tag.
After photocrosslinking, higher molecular weight bands around 46 kD emerged, accompanied by the intensity decrease of the monomer band (several faint bands between 23 kD and 46 kD were proteins in the cell lysate recognized by the penta-His antibody nonspecifically, which were also seen in samples without exposure to UV light). […] Crosslinked GST migrated at different positions in the gel depending on where Azi was incorporated.

Protein | binding result [1] | crosslinking efficiency [2] [%]
B1 | binds | –
B2 | – | 33
B3 | – | 40
B4 | binds | –
B5 | – | 98

From patent US20120077224A1 (SALK INSTITUTE FOR BIOLOGICAL STUDIES, published 2012)
